Laboratory results as given in patent US12637662B2, “Cells, islets, and organoids that evade immune detection and autoimmunity, methods of production and use thereof” (SALK INSTITUTE FOR BIOLOGICAL STUDIES, priority 2018, dated 2026).

Assays:
[1] = system: wHILO cells; test: Immunohistochemistry and flow cytometry of cell composition; format: cell-based, human
Description: Secondary antibodies were coupled to Alexa 568, 647 (Life Technologies), and IHC staining was visualized by confocal microscopy (ZEISS) or fluorescence microscopy. Hoechst 33342 (Thermo Scientific, 62249, 1 μg/ml final concentration) was used for nuclear staining.
Clusters at indicated stages were dissociated with TrypLE (GIBCO) with 20 ug/ml DNase for 12 minutes at 37° C. and then were fixed with 4% PFA for 10 minutes at room temperature. Clusters were then permeabilized with 0.2% Triton X for 10 min, blocking with 10% goat serum for 30 min and stained for various intracellular markers with antibodies, c-peptide, (1/100, abcam, ab30477), PDX-1 (1/100, BD, 562161), NKX6-1 (1/100, BD, 563338), Chromogranin A (1/100, BD, 564583), MAFA (1/100, abcam, ab264583), MAFB (1/100, abcam, ab66506), Glucagon (1/100, abcam, ab82270), Somatostatin (1/100, abcam, 108456) for analysis on a BD Biosciences LSRII instrument. Data were analysed by FlowJo software. Secondary antibodies for c-peptide, Glucagon and Somatostatin were coupled to Alexa 647 (Life Technologies).

[2] = system: ERRγ (ESRRG), mitochondrial and insulin gene expression; test: Quantitative RT-PCR gene expression in hiPSC-derived islet organoids/HILOs; format: cell-based, human; settings: hiPSC-derived islet organoids, MCS or HILOs
Description: hiPSCs were cultured in matrigel-coated plates. Single cell suspensions were prepared using Accutase, washed in PBS, and collected by centrifugation (1000-1300 rpm for 5 min). Cells were re-suspended with 3D Kelco Gel Stem TeSR™ Base Medium in the presence of the ROCK inhibitor (10 μM Y-27632, StemCell) for 5 to 7 days until spheroids reached 50-100 μm diameter. The medium was then replaced with 0.015% Kelco gel containing 0.3% methylcellulose and supplemented with 100 ng/ml human Activin A (R&D Systems), 3 μM CHIR99021 (Axon or Selleckchem) in differentiation medium (S1) for 1 day, and then 100 ng/ml human Activin in differentiation medium (S1) for another 2 days (Stage 1, Definitive Endoderm). Subsequently, the medium was replaced with differentiation medium (S2) with 50 ng/ml FGF7 (R&D Systems) for 2 days, differentiation medium (S3) with 50 ng/ml FGF7, 0.25 μM SANT-1 (Sigma), 1 μM Retinoic Acid (Sigma), 100 nM LDN193189, 10 μM Alk5 inhibitor II and 200 nM of the ß-Amyloid Precursor Protein modulator TPB for 3 days, then 50 ng/ml FGF7, 0.25 μM SANT-1 (Sigma), 1 μM Retinoic Acid (Sigma), 100 nM LDN193189, 10 μM Alk5 inhibitor II and 100 nM of the ß-Amyloid Precursor Protein modulator TPB for 2 days. Subsequently the medium was replaced with differentiation medium (S4) with 0.25 μM SANT-1, 50 nM retinoic acid, 100 nM LDN193189, 10 μM Alk5 inhibitor II, 1 μM T3 for 3 days. Subsequently, the medium was replaced with differentiation medium (S5) with 100 nM LDN193189, 100 nM […] inhibitor XX (GSiXX, Millipore), 10 μM Alk5 inhibitor IL, 1 μM T3 for 7 days. Subsequently, the medium was replaced with differentiation media (S5) with 10 μM Trolox (Calbiochem), 2 μM R428 (Selleckchem), 1 mM N-acetyl cysteine, 10 μM Alk5 inhibitor II, 1 μM T3 for an additional 7 to 20 days. […]
Total RNA was extracted using TRIzol reagent (Invitrogen) and RNeasy KIT (Qiagen). […] Real time quantitative RT-PCR (qPCR) was performed using SYBR Green (Bio-Rad).

B1: WNT4: recombinant human Wnt4 protein (R&D Systems), non-canonical WNT maturation factor (protein, UniProt P56705 23-351, looked up)
Protein Wnt-4: SNWLYLAKLSSVGSISEEETCEKLKGLIQRQVQMCKRNLEVMDSVRRGAQLAIEECQYQFRNRRWNCSTLDSLPVFGKVVTQGTREAAFVYAISSAGVAFAVTRACSSGELEKCGCDRTVHGVSPQGFQWSGCSDNIAYGVAFSQSFVDVRERSKGASSSRALMNLHNNEAGRKAILTHMRVECKCHGVSGSCEVKTCWRAVPPFRQVGHALKEKFDGATEVEPRRVGSSRALVPRNAQFKPHTDEDLVYLEPSPDFCEQDMRSGVLGTRGRTCNKTSKAIDGCELLCCGRGFHTAQVELAERCSCKFHWCCFVKCRQCQRLVELHTCR
**Q.** Which results are given for B1?
**A.** cellular composition of HILOs [1]: not altered; expression of ERRγ (ESRRG) and mitochondrial genes [2]: dose-dependently increased; expression of ERRγ (ESRRG) and mitochondrial genes ([2]; listed as rhWNT4): induced
